Patent US20110059469A1 (UNIVERSITY OF TOKYO, published 2011)

Tests used:
human CLDN4 = biological target: T1, human CLDN4 (human, UniProt O14493 1-209); assay: flow cytometry on Ba/F3 cells forced to express human CLDN4
T1 construct: also called hCLDN4
T1 sequence: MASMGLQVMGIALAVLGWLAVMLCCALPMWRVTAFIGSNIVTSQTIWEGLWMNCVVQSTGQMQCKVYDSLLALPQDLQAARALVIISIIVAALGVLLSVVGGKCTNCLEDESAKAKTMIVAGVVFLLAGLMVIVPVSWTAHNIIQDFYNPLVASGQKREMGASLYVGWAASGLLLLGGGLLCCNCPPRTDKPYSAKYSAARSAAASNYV

human CLDN9 = biological target: T2, human CLDN9 (human, UniProt O95484 1-217); assay: flow cytometry on Ba/F3 cells forced to express human CLDN9
T2 construct: also called hCLDN9
T2 sequence: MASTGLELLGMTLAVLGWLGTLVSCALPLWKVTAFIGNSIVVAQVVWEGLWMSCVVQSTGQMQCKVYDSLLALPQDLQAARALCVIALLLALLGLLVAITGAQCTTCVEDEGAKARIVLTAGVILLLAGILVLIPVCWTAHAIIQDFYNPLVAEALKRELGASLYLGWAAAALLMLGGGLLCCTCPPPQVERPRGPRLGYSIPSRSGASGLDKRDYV

B1: AE1-16 (antibody, V domains shown)
VH: EVQLQQSGPELVKPGASVKISCKASGYSFTGYFMNWVKQSHGKSLEWIGRINPYNGDTFYNQKFKGKATLTVDKSSNTAHMELRSLTSEDSAVYYCARVLFLDFDDPYLMDYWGQGTSVTVSS
VL: ENVLTQSPAIMSATLGEKVTMSCRATSNVKYMYWYQQKSGASPKLWIYYTSNLASGVPARFSGSGSGTSYSLTISSVEAADAATYYCQQFTSSPSTFGAGTKLELK
notes: also called anti-human CLDN6 monoclonal antibody AE1-16
B1: binds (human CLDN4); binds (human CLDN9).

B2: AE49-11 (antibody, IgG2b, V domains shown)
VH: EVQLQQSGPELVKPGASVKISCKASGYSFTGYFMNWVKQSHGKSLEWIGRINPYNGDTFYNQKFKGKATLTVDKSSSTAHMELRSLTSEDSAVYYCARVLFLDFDDPYLMDYWGQGTSVTVSS
VL: ENVLTQSPAIMSATLGEKVTMSCRATSNVKYMYWYQQKSGASPKLWIYYTSNLASGVPARFSGSGSGTSYSLTISSVEAADAATYYCQQFTSSPSTFGAGTKLELK
notes: also called AE49-11 antibody; original IgG2b antibody
B2: binds (human CLDN4); binds (human CLDN9).

B3: AB3-1 (antibody, V domains shown)
VH: EVQLQQSGPELVKPGGSMKISCKASGYSFTGYTMNWVKQSHGKNLEWIGLINPYNGGISYNQKFKDKATLTMDKSSSTAYMELLSLTSEDSAIYFCARDYRYEGFDYWGQGTLVTVSA
VL: QIVLTQSPAIMSASLGERVTMTCTASSVVISTYLHWYQQKPGSSPKLWIYSTSNLASGVPVRFSGSGSGTSYSLTISSMEAEDAATYYCHQYHRSPWTFGGGTKLEIK
notes: also called anti-human CLDN6 monoclonal antibody AB3-1
B3: binds (human CLDN9).
